The text below walks through data of patent US20110039770A1 (PHARMAGAP, published 2011).

Test [1] concerns the target T1, PKC-ζ in extracts of human cell lines (human, UniProt Q05513 1-592).
T1 construct: Denatured on the Western blot membrane; also called PKC-zeta (cell extract)
T1 sequence (looked up): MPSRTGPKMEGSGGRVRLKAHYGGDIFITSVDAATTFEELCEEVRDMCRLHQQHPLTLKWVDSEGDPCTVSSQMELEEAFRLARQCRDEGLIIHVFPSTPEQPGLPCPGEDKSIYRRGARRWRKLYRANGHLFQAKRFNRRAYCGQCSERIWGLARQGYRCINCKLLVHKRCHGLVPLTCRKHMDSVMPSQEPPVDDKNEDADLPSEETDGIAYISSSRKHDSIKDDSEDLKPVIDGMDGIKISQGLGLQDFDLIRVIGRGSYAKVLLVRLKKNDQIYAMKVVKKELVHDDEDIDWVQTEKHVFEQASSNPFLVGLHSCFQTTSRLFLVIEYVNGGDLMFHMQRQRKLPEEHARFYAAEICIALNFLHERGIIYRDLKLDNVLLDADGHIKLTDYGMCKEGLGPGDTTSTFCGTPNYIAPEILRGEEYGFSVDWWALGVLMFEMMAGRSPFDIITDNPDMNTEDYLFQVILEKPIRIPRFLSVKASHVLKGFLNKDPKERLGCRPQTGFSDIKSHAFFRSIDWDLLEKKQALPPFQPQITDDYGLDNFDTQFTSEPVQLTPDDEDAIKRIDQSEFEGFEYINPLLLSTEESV
The test is described as follows: Western-blot competition, cell extracts: PRE at 10X/20X the anti-PKC zeta primary antibody concentration competes with that antibody; band densitometry (lower band = PRE bound).

Test [2] has as its target T2, PKC-ι in extracts of human cell lines (human, UniProt P41743 2-596).
T2 construct: Denatured on the Western blot membrane; also called PKC-iota (cell extract)
T2 sequence (looked up): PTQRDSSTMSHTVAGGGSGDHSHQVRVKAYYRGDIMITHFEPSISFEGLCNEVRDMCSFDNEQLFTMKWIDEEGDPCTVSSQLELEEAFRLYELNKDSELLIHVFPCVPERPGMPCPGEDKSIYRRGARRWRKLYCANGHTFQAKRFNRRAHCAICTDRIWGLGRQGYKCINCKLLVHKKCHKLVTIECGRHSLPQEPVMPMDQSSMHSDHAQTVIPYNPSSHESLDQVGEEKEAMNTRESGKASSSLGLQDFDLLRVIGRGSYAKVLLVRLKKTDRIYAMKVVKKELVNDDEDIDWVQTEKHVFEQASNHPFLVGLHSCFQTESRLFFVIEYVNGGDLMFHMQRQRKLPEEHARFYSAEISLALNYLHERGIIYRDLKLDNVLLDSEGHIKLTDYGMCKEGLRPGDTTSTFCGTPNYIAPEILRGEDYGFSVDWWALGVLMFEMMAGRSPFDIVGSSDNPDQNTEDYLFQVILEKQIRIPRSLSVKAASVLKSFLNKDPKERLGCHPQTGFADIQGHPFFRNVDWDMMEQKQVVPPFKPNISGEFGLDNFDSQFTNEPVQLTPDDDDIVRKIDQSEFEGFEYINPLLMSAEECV
The test is described as follows: Western-blot competition, cell extracts: PRE at 10X/20X the anti-PKC iota primary antibody concentration competes with that antibody; band densitometry (lower band = PRE bound).

The target in test [3] is T3, PKC-ε, purified isoform (UniProt Q02156 1-737).
T3 construct: also called PKC-epsilon; epsilon
T3 sequence (looked up): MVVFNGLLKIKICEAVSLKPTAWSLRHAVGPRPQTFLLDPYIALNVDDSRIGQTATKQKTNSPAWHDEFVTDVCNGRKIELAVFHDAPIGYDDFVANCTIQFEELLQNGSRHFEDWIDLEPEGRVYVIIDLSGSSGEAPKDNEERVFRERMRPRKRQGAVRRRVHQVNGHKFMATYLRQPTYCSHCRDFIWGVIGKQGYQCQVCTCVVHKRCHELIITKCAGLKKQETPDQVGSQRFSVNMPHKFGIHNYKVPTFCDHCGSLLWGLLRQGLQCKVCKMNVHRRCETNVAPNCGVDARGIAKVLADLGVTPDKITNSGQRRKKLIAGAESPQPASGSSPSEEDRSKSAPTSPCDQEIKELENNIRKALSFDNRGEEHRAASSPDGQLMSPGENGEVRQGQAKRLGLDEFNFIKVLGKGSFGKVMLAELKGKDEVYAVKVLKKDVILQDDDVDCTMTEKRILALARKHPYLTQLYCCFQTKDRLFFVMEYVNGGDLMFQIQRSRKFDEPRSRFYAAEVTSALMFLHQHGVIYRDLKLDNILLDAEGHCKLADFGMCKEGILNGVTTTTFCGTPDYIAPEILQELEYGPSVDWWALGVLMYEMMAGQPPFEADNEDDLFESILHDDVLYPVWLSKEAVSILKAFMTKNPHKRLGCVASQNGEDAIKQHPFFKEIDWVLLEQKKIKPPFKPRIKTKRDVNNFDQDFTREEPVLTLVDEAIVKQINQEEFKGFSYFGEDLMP
The test is described as follows: competition ELISA on coated purified PKC-ε vs anti-PKC ε antibody; PRE 100 µM. On the technique in general: An ELISA detects its analyte on a solid surface through an enzyme-linked reagent.

For test [4], the target named is T4, PKC-α, purified isoform (UniProt P17252 1-672).
T4 construct: also called PKC-alpha; protein kinase C alpha
The test is described as follows: purified isoform competition ELISA, summary grade.

The target in test [5] is T3, PKC-ε, purified isoform. The test is described as follows: purified isoform competition ELISA, summary grade.
The target in test [6] is T5, PKC-βI, purified isoform (UniProt P05771-1 1-671).
T5 construct: also called PKC-beta I; beta 1
The test is described as follows: purified isoform competition ELISA, summary grade.

Test [7] has as its target T6, PKC-βI in extracts of human cell lines (human, UniProt P05771-1 2-671).
T6 construct: Denatured on the Western blot membrane; beta I splice form; also called PKC-beta I (cell extract)
Nature of the test: Western-blot competition, cell extracts: PRE at 10X/20X the anti-PKC beta I primary antibody concentration competes with that antibody; band densitometry (lower band = PRE bound).

Test [8] addresses T7, PKC-ε in extracts of human cell lines (human, UniProt Q02156 1-737).
T7 construct: Denatured on the Western blot membrane; also called PKC-epsilon (cell extract)
T7 sequence (looked up): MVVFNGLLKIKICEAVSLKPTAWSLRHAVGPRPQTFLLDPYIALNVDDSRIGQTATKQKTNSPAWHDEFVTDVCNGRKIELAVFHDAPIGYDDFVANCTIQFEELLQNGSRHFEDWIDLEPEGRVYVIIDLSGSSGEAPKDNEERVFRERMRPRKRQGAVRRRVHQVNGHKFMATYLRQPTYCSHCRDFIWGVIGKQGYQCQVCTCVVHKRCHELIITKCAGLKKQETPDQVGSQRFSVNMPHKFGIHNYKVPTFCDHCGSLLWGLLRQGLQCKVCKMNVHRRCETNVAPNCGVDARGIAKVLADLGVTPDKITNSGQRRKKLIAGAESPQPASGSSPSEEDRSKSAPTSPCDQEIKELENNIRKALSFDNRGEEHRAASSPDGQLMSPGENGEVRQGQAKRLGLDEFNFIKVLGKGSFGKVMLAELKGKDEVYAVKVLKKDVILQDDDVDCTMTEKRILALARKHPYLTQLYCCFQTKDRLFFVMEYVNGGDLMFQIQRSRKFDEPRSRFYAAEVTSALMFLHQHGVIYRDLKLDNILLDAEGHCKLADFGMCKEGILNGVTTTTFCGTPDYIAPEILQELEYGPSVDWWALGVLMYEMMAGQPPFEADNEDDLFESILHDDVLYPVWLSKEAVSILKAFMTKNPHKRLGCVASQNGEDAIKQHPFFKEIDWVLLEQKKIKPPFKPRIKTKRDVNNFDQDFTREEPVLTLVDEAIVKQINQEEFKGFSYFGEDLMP
Nature of the test: Western-blot competition, cell extracts: PRE at 10X/20X the anti-PKC epsilon primary antibody concentration competes with that antibody; band densitometry (lower band = PRE bound).

Test [9] deals with T3, PKC-ε, purified isoform. The test is described as follows: competition ELISA on coated purified PKC-ε vs anti-PKC ε antibody; PRE 50 µM.
Test [10] has as its target T3, PKC-ε, purified isoform. The test is described as follows: competition ELISA on coated purified PKC-ε vs anti-PKC ε antibody; PRE 200 µM.

T5 sequence (P05771 whole entry, canonical isoform): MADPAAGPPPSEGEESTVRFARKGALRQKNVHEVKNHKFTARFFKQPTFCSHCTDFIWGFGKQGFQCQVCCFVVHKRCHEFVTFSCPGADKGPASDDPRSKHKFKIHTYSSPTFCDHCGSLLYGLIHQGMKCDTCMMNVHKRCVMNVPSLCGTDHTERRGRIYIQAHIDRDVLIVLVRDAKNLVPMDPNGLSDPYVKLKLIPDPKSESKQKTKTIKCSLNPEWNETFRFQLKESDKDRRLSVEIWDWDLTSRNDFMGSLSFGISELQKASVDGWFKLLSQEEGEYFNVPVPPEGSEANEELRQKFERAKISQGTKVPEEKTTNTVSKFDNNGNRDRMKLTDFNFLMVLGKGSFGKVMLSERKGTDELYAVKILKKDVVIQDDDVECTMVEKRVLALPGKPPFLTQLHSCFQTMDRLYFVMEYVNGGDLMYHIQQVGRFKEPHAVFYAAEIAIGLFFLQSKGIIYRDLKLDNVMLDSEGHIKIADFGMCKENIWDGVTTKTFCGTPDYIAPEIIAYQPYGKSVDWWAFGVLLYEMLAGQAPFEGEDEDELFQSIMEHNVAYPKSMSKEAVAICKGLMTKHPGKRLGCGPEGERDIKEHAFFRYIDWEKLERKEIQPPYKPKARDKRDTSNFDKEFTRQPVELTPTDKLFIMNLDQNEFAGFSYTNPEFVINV
T6 sequence (P05771 2-671 limits assumed): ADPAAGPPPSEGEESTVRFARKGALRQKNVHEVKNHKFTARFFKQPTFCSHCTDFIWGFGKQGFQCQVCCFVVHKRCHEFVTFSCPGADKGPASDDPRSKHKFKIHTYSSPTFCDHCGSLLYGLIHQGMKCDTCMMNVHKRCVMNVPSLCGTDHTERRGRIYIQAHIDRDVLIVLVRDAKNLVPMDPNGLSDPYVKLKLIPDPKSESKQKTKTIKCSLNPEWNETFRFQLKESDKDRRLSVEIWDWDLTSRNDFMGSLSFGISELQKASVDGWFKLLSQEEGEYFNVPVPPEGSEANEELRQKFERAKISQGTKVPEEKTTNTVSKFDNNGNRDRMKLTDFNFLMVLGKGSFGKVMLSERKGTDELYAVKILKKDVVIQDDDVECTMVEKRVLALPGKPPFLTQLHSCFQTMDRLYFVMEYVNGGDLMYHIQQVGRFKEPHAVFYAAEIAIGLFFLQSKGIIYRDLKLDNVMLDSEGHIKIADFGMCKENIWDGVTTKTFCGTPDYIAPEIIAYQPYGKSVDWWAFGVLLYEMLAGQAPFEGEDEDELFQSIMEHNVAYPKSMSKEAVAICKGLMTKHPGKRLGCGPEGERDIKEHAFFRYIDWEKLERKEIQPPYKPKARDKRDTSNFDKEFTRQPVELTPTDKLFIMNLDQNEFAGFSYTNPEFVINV

B1: PRE 12 (peptide)
peptide: Ac-KDAQNLI-NH2
notes: Ac-KDAQNLI-NH2; also called peptide recognition element 12
For the molecule B1, the binding result in [1] is reported as “binds”; in test [2] it was “no binding (tested: 20X the primary antibody concentration)”; in test [4], “no binding”; in test [5], “no binding”; in [6], “no binding”; in test [7], “no binding (tested: 20X the primary antibody concentration)”. For the same molecule, the binding result in test [8] is given as “no binding (tested: 20X the primary antibody concentration)”. In addition, the relative binding capacity in [3] is 0.28%; in test [9] it was 10.4%; in [10], 0%.
